In PMC5499727 (Nucleic Acids Research, 2017):

Molecular target: Mcm2/4/6/7 complex (wild type) (mouse, UniProt P97310 1-904; P49717 1-862; P97311 1-821; Q61881 1-719)
Assay: co-sedimentation

Chain of Mcm2/4/6/7 complex (wild type) (P97310 whole entry, chain 1 of 4): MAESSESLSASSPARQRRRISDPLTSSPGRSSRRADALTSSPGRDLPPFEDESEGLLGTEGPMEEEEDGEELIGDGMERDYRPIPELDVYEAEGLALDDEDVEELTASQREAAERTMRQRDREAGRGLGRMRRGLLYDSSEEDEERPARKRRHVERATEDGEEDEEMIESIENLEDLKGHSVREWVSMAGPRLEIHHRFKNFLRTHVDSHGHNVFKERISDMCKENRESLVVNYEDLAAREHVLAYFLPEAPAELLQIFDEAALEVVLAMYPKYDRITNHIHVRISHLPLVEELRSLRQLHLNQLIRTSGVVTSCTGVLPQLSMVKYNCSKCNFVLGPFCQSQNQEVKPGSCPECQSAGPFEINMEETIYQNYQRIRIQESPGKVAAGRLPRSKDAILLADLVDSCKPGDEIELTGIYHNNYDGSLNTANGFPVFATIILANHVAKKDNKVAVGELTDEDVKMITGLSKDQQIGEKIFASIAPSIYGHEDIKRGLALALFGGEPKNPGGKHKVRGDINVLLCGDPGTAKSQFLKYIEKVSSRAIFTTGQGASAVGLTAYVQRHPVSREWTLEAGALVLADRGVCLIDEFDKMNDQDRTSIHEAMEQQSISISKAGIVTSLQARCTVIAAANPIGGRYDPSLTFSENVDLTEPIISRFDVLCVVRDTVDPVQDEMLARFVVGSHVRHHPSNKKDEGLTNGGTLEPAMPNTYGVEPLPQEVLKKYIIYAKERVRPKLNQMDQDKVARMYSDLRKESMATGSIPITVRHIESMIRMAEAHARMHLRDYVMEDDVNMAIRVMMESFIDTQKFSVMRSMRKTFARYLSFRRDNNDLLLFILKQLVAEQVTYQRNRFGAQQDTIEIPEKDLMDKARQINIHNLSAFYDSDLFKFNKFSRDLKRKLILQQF
Chain of Mcm2/4/6/7 complex (wild type) (P49717 whole entry, chain 2 of 4): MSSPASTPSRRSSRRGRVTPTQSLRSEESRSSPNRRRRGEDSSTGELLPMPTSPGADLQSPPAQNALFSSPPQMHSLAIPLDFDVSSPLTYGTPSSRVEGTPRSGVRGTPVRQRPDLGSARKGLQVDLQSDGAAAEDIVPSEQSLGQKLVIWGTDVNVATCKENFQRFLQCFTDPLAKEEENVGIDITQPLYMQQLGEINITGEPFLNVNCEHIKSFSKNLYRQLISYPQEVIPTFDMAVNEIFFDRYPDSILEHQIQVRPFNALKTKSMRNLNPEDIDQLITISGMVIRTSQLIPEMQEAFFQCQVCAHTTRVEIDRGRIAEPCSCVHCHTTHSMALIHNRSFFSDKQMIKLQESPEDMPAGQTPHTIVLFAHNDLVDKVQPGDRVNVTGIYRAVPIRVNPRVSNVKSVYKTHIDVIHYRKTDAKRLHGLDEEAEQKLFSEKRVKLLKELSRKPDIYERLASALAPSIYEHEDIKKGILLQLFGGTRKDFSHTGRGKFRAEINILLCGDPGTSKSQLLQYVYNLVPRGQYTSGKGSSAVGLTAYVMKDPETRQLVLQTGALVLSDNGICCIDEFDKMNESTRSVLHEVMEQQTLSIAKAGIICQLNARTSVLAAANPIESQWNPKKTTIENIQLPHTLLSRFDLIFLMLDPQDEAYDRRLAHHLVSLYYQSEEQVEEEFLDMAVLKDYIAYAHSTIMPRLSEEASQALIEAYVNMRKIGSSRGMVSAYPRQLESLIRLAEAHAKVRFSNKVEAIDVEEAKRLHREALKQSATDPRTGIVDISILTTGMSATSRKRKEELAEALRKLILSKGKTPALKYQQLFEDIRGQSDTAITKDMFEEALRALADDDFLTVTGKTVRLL
Chain of Mcm2/4/6/7 complex (wild type) (P97311 whole entry, chain 3 of 4): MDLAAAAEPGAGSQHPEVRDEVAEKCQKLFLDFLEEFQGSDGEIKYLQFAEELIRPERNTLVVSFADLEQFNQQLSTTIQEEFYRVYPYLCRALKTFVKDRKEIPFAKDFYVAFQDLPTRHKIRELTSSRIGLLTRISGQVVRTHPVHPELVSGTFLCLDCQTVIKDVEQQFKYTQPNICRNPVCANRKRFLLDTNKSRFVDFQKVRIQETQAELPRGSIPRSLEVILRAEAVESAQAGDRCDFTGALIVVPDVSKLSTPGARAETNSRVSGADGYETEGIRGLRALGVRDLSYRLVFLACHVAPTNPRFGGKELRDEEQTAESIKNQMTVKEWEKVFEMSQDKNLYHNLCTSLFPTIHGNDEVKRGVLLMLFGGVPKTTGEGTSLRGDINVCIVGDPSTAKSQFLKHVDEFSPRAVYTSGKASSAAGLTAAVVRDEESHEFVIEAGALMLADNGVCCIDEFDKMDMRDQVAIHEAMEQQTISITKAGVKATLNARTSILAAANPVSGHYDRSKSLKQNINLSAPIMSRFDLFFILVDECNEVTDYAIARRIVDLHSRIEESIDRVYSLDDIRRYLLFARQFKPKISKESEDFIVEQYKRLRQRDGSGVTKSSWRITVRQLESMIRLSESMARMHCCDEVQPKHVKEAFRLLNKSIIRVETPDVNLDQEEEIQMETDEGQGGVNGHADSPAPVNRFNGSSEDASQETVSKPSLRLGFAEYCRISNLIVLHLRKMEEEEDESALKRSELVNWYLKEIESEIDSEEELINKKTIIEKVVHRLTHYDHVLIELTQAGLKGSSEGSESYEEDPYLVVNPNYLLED
Chain of Mcm2/4/6/7 complex (wild type) (Q61881 whole entry, chain 4 of 4): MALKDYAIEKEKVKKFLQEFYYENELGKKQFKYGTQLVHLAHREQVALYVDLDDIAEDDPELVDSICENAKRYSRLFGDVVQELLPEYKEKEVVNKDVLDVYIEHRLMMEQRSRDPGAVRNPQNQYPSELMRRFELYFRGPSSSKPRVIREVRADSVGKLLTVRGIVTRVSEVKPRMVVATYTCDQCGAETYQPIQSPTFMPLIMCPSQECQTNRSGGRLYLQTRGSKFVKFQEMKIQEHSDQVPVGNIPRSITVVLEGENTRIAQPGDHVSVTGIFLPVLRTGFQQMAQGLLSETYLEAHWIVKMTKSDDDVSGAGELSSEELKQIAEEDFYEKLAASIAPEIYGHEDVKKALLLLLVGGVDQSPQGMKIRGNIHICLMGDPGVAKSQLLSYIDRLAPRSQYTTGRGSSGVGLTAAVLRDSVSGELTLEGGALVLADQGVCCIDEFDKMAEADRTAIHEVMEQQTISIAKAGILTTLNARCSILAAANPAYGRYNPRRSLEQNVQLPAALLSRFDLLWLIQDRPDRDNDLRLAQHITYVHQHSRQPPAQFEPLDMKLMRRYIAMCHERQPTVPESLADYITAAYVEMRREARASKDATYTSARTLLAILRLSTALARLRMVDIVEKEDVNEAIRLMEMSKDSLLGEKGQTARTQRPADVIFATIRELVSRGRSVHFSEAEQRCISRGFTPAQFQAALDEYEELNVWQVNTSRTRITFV

- binding result: binds
B1: Mcm3/5 complex (wild type) (complex, mouse)
chain 1: MAGTVVLDDVELREAQRDYLDFLDDEEDQGIYQNKVRELISDNQYRLIVSVNDLRRKNEKRANRLLNNAFEELVAFQRALKDFVASIDATYAKQYEEFYIGLEGSFGSKHVSPRTLTSCFLSCVVCVEGIVTKCSLVRPKVVRSVHYCPATKKTIERRYSDLTTLVAFPSSSVYPTKDEENNPLETEYGLSVYKDHQTITIQEMPEKAPAGQLPRSVDVILDDDLVDKVKPGDRIQVVGTYRCLPGKKGCYTSGTFRTVLIACNVKQMSKDIQPAFSADDIAKIKKFSKTRSKDVFEQLARSLAPSIHGHDYVKKAILCLLLGGVERELENGSHIRGDINILLIGDPSVAKSQLLRYVLCTAPRAIPTTGRGSSGVGLTAAVTTDQETGERRLEAGAMVLADRGVVCIDEFDKMSDMDRTAIHEVMEQGRVTIAKAGIHARLNARCSVLAAANPVYGRYDQYKTPMENIGLQDSLLSRFDLLFIMLDQMDPEQDREISDHVLRMHQYRAPGEQDGDALPLGSSVDILATDDPDFTQDDQQDTRIYEKHDSLLHGTKKKKEKMVSAAFMKKYIHVAKIIKPTLTQESAAYIAEEYSRLRSQDSMSSDTARTSPVTARTLETLIRLATAHAKARMSKTVDLQDAEEAVELVQYAYFKKVLEKEKKRKKASEDESDLEDEEEKSQEDTEQKRKRRKTHAKDGESYDPYDFSEAETQMPQVHTPKTDDSQEKTDDSQETQDSQKVELSEPRLKAFKAALLEVFQEAHEQSVGMLHLTESINRNREEPFSSEEIQACLSRMQDDNQVMVSEGIVFLI
chain 2: MSGFDDPGIFYSDSFGGDPGAEEGQARKSQLQRRFKEFLRQYRVGTDRTGFTFKYRDELKRHYNLGEYWIEVEMEDLASFDEELADHLHKQPAEHLQLLEEAAKEVADEVTRPRPAGDELLQDIQVMLKSDASPSSIRILKSDMMSHLVKIPGIIISASAVRAKATRISIQCRSCHNTLTNIAMRPGLEGYALPRKCNMDQAGRPKCPLDPYFIMPDKCKCVDFQTLKLQELPDAVPHGEMPRHMQLYCDRYLCDKVVPGNRVTIMGIYSIKKFGLNPSKGRDRVGVGIRSSYIRVLGIQVDTDGSGRSFAGSVSPQEEEEFRRLAALPNIYELISKSISPSIFGGMDMKKAIACLLFGGSRKRLPDGLTRRGDINLLMLGDPGTAKSQLLKFVEKCSPIGVYTSGKGSSAAGLTASVIRDPSSRNFIMEGGAMVLADGGVVCIDEFDKMREDDRVAIHEAMEQQTISIAKAGITTTLNSRCSVLAAANSVFGRWDETKGEDNIDFMPTILSRFDMIFIVKDEHNEERDMMLAKHVMTLHVSALTQTQAVEGEIDLAKMKKFIAYCRARCGPRLSAEAAEKLKNRYIIMRSGARQHERDSDRRSSIPITVRQLEAIVRIAEALSKMKLQPFATEADVEEALRLFQVSTLDAALSGNLSGVEGFTTQEDQEMLSRIEKQLKRRFAIGSQVSEHSIVQDFTKQKYPEHAIRKVLQLMLRRGEIQHRMQRKVLYRLK
